Data set [1] deals with single-stranded DNA binding protein (SSB, BP), immobilized (Escherichia coli). The settings on record: BP 0.2 mg/ml on Immobilon membrane; 10-1000 pg DNA in 10 mg/ml BSA; 80% captured with BP at 1 mg/ml.
The test system is the same in data set [2]. The conditions noted are these: BP 50 ug/ml adsorbed on nitrocellulose, BSA blocked; sample in 10 mg/ml BSA.

Where two headings read alike, the source gives them in different places.

Consider 32P-labeled single-stranded DNA, for which the values for the binding signal in data set [1] and in data set [2] were 70 % captured and 36 % captured, respectively.

The record behind these values is patent US4978608.
